# From patent publication US20230203177A1 (Bristol-Myers Squibb, published 2023)
# Columns and labels:
# [1] = molecular target: human CD40 on primary human tonsillar B cells (human, UniProt P25942 21-277); assay: cell-based or functional assay
# [2] = molecular target: T1, soluble human CD40 extracellular domain (human, UniProt P25942 21-193); assay: SPR, purified Ab on protein A, 6 concentrations of hCD40 ECD, mean of 3
# T1 construct: Produced in house; also called hCD40; soluble hCD40 extracellular domain
# T1 sequence (P25942 21-193 limits assumed): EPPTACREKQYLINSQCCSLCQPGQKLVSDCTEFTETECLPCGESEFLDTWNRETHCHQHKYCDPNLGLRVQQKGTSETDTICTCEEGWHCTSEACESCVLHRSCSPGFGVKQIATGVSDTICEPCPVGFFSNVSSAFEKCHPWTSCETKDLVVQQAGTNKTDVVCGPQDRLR
# Description: (§1) Additionally, to more accurately define the dissociation rate (kd), a longer dissociation time of 360 seconds (s) was used as opposed to the shorter 180 s dissociation that had been used in the supernatant screening experiment.
# (§2) CD40 binding SPR: SPR studies of the purified antibodies were conducted on BIAcore™ T200 instrument (GE Healthcare, Chicago Ill.). A Series S Protein A sensor chip (GE Healthcare, Chicago Ill.) was equilibrated with SPR running buffer of 10 mM NaPO₄, 130 mM NaCl, 0.05% tween 20, (PBS-T) pH 7.2 at 25° C. The purified antibody samples were diluted to 3 μg/ml in PBS-T and captured on the protein A surface for 30 s at 10 μl/min Binding of 3.91, 7.81, 15.6, 31.3, 62.5, and 125 nM human CD40 extracellular domain (produced in house) was evaluated using association time of 180 s at 30 μl/min, followed by a dissociation time of 360 s at 30 μl/min Regeneration between cycles was accomplished using two 15 s injections of 10 mM glycine pH 1.5. […] Data were analyzed using BIAcore™ T200 evaluation software by fitting to a 1:1 Langmuir model.
# [3] = molecular target: T1, soluble human CD40 extracellular domain; assay: SPR, purified Ab on protein A chip, soluble hCD40 ECD analyte, Fc2-1, n=3 global fit
# Description: as §2, with “A” for “CD40 binding SPR: SPR studies of the purified antibodies were conducted on BIAcore™ T200 instrument (GE Healthcare, Chicago Ill.). A”, “[…] After priming the system, the 3 μg/ml” for “The purified”, “were” for “were diluted to 3 μg/ml in PBS-T and”, “50 nM” for “3.91, 7.81, 15.6, 31.3, 62.5,”, “500” for “125”, “180” for “360”
# [4] = molecular target: T1, soluble human CD40 extracellular domain; assay: SPR, purified Ab on protein A chip, soluble hCD40 ECD analyte, Fc3-1, n=3 global fit
# [5] = molecular target: T1, soluble human CD40 extracellular domain; assay: SPR, purified Ab on protein A chip, soluble hCD40 ECD analyte, Fc4-1, n=3 global fit
# Description: as §2, with “A” for “CD40 binding SPR: SPR studies of the purified antibodies were conducted on BIAcore™ T200 instrument (GE Healthcare, Chicago Ill.). A”, “[…] After priming the system, the 3 μg/ml” for “The purified”, “were” for “were diluted to 3 μg/ml in PBS-T and”, “50 nM” for “3.91, 7.81, 15.6, 31.3, 62.5,”, “500” for “125”, “180” for “360”
# [6] = molecular target: T1, soluble human CD40 extracellular domain; assay: SPR, Ab captured from supernatant on protein A, hCD40 ECD analyte; antibody captured out of supernatant
# Description: The titer data (Table 21) were used to normalize the antibody concentration in each supernatant to 3 μg/ml, and these antibodies were captured out of the supernatants on a protein A CMS Series S sensor chip (GE Healthcare), and tested for binding to two concentrations (5 nM and 50 nM) of soluble hCD40 extracellular domain.
# CD40 binding SPR of antibody supernatants: Surface plasmon resonance (SPR) studies were conducted on a BIAcore™ T200 instrument (GE Healthcare, Chicago Ill.). A Series S Protein A sensor chip (GE Healthcare, Chicago Ill.) was equilibrated with SPR running buffer of 10 mM NaPO₄, 130 mM NaCl, 0.05% tween 20, (PBS-T) pH 7.2 at 25° C. The 96 antibody supernatants were normalized to a concentration of 3 μg/ml by diluting with PBS-T using a PerkinElmer JANUS® G3 system (PerkinElmer, Akron, Ohio). After priming the system, the 3 μg/ml antibody samples were captured on the protein A surface for 30 s at 10 μl/min Binding of 50 nM and 500 nM human CD40 extracellular domain (produced in house) was evaluated using association time of 180 s at 30 μl/min, followed by a dissociation time of 180 s at 30 μl/min Regeneration between cycles was accomplished using two 15 s injections of 10 mM glycine pH 1.5. […] Data were analyzed using BIAcore™ T200 evaluation software by fitting to a 1:1 Langmuir model.
# [7] = molecular target: T1, soluble human CD40 extracellular domain; assay: SPR, purified Ab on protein A, 6 concentrations of hCD40 ECD, mean of 3; purified antibody, mean of three measurements
# Description: as §1, §2
# Sequence of human CD40 on primary human tonsillar B cells (P25942 21-277 limits assumed): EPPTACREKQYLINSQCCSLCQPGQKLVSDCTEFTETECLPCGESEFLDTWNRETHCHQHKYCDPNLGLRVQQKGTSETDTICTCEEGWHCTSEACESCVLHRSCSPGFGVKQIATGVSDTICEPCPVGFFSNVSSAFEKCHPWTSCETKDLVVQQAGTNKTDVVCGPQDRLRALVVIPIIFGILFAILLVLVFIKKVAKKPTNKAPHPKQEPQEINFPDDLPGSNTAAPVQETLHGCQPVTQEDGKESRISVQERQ
binder,measurement,setting,value
"BMS-986325 (antibody, human IgG1, kappa, IgG1-P238K; purified lots and supernatant M1 treated as one molecule; also called M1 (wt); Y12XX-hz28) heavy: not shown light: DIQMTQSPSFLSASVGDRVTITCKASQDVSTAVAWYQQKPGKAPKLLIYSASYRYTGVPSRFSGSGSGTDFTLTISSLQPEDFATYYCQQHYSTPWTFGGGTKVEIKRTVAAPSVFIFPPSDEQLKSGTASVVCLLNNFYPREAKVQWKVDNALQSGNSQESVTEQDSKDSTYSLSSTLTLSKADYEKHKVYACEVTHQGLSSPVTKSFNRGEC","IC50, inhibition of tonsillar human B cell proliferation stimulated by IZ-hCD40L trimer (BMS-986325-WT P1-071223-1 lot 1)",[1],0.0012 µg/mL
same,"IC50, inhibition of tonsillar human B cell proliferation stimulated by IZ-hCD40L trimer (BMS-986325-WT P1-071223-3 lot 3)",[1],0.0056 µg/mL
same,"IC50, inhibition of tonsillar human B cell proliferation stimulated by IZ-hCD40L trimer (BMS-986325 P1-073346-1)",[1],0.0014 µg/mL
same,"IC50, inhibition of tonsillar human B cell proliferation stimulated by hCD40L expressing CHO cells (BMS-986325-WT P1-071223-1 lot 1)",[1],0.042 µg/mL
same,"IC50, inhibition of tonsillar human B cell proliferation stimulated by hCD40L expressing CHO cells (BMS-986325-WT P1-071223-3 lot 3)",[1],0.0314 µg/mL
same,"IC50, inhibition of tonsillar human B cell proliferation stimulated by hCD40L expressing CHO cells (BMS-986325 P1-073346-1)",[1],0.047 µg/mL
same,Kd,[2],3.1 nM
same,koff,[2],0.00066 s⁻¹
same,Kd,[3],4.4 nM
same,koff,[3],0.00087 s⁻¹
same,kon,[3],200000 M⁻¹ s⁻¹
same,Kd,[4],4.5 nM
same,koff,[4],0.00091 s⁻¹
same,kon,[4],200000 M⁻¹ s⁻¹
same,Kd,[5],4.4 nM
same,koff,[5],0.00091 s⁻¹
same,kon,[5],210000 M⁻¹ s⁻¹
same,Kd,[6],4.2 nM
same,kon,[7],220000 M⁻¹ s⁻¹
